{"source": "paper PMC4121139", "target": "human serum albumin (human) (UniProt P02768)", "test": "SPR"}
{"substance": "albumin-binding domain (ABD) derived from streptococcal protein G (domain or fragment)", "values": [{"measurement": "Kd", "result": 8.1, "unit": "nM"}, {"measurement": "koff", "result": 0.00044, "unit": "s⁻¹"}, {"measurement": "kon", "result": 54000, "unit": "M⁻¹ s⁻¹"}]}
